Results from US20230303680A1 (UNIVERSIT T Z RICH, published 2023).

Legend:
[1] = target: T1, human interleukin-2 (recombinant human IL-2, teceleukin) (human, UniProt P60568 21-153); test: single-cycle surface plasmon resonance (SPR)
T1 construct: also called hIL-2; rhIL-2

[2] = target: T1, human interleukin-2 (recombinant human …); test: SPR, mAb immobilized, IL-2 injected
Procedure: (§1) Chip surface was regenerated after every cycle using glycine buffer pH 1.5. Measurements were acquired at 20° C. and analysed on a Biacore T100 (GE Healthcare).

[3] = target: T1, human interleukin-2 (recombinant human …); test: SPR
[4] = target: T1, human interleukin-2 (recombinant human …); test: SPR; remark: listed apart in the source
Procedure: as §1

T1 sequence (P60568 21-153 limits assumed): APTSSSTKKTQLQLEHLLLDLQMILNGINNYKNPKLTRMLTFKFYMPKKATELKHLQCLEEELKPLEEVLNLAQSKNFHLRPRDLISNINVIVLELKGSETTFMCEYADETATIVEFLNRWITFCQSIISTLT

B1: 4 + 9 (antibody, V domains shown)
VH: EVMLVESGGGLVKPGGSLKLSCAASGFSFSNYAMSWVRQTPERRLEWVALISGGGRYSYYPDSLKGRFTISRDSARNSLYLQMSSLRSEDTAMYYCARHMGHNDYLAWFAYWGQGTLVTVSS
VL: DIVMTQSPSSLAVSVGQKVTMSCKSSQSLLNSANQRNYLAWYQQKPGQSPKLLIYWASTRESGVPDRFIGSGSGTDFTLNISSVQAEDLADYFCQQYYSAPPWTFGGGTKLEIKR
notes: UFKA-20 variant; also called UFKA-20 variant 4+9; vH chain 4, vL chain 9; copies: 2 + 2
[1]
  Kd: 1.02 nM

B2: 4 + 10 (antibody, V domains shown)
VH: EVMLVESGGGLVKPGGSLKLSCAASGFSFSNYAMSWVRQTPERRLEWVALISGGGRYSYYPDSLKGRFTISRDSARNSLYLQMSSLRSEDTAMYYCARHMGHNDYLAWFAYWGQGTLVTVSS
VL: DIVMTQSPSSLAVSVGQKVTMSCKSSQSLLNVSNQRNYLAWYQQKPGQSPKLLIYFASTRESGVPDRFIGSGSGTDFTLNISSVQAEDLADYFCQQYYSCPPWTFGGGTKLEIKR
notes: UFKA-20 variant; also called UFKA-20 variant 4+10; vH chain 4, vL chain 10; copies: 2 + 2
[1]
  Kd: 33.6 nM

B3: 103 + 6 (antibody, V domains shown)
VH: EVMLVESGGGLVKPGGSLKLSCAASGFSFSNYAMSWVRQTPERRLEWVALISGGGSYSYYPDSLKGRFTISRDSARNSLYLQMSSLRSEDTAMYYCARHMGYADYLAWFAYWGQGTLVTVSS
VL: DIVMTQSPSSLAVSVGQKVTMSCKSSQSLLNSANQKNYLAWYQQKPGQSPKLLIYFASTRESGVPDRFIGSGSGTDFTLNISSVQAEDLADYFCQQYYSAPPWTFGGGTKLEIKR
notes: UFKA-20 variant; copies: 2 + 2
[1]
  Kd: 2.09 nM

B4: 105 + 6 (antibody, V domains shown)
VH: EVMLVESGGGLVKPGGSLKLSCAASGFSFSNYAMSWVRQTPERRLEWVALISGGGSYSYYPDSLKGRFTISRDSARNSLYLQMSSLRSEDTAMYYCARHMGYNDALAWFAYWGQGTLVTVSS
VL: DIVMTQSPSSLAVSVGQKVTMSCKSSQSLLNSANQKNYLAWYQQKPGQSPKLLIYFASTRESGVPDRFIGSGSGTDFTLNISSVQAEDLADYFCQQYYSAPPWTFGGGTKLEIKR
notes: UFKA-20 variant; also called UFKA-20 variant 105+6; vH chain 105, vL chain 6; copies: 2 + 2
[1]
  Kd: 0.429 nM

B5: 103 + 9 (antibody, V domains shown)
VH: EVMLVESGGGLVKPGGSLKLSCAASGFSFSNYAMSWVRQTPERRLEWVALISGGGSYSYYPDSLKGRFTISRDSARNSLYLQMSSLRSEDTAMYYCARHMGYADYLAWFAYWGQGTLVTVSS
VL: DIVMTQSPSSLAVSVGQKVTMSCKSSQSLLNSANQRNYLAWYQQKPGQSPKLLIYWASTRESGVPDRFIGSGSGTDFTLNISSVQAEDLADYFCQQYYSAPPWTFGGGTKLEIKR
notes: as for B3
[1]
  Kd: 2.7 nM

B6: 105 + 9 (antibody, V domains shown)
VH: EVMLVESGGGLVKPGGSLKLSCAASGFSFSNYAMSWVRQTPERRLEWVALISGGGSYSYYPDSLKGRFTISRDSARNSLYLQMSSLRSEDTAMYYCARHMGYNDALAWFAYWGQGTLVTVSS
VL: DIVMTQSPSSLAVSVGQKVTMSCKSSQSLLNSANQRNYLAWYQQKPGQSPKLLIYWASTRESGVPDRFIGSGSGTDFTLNISSVQAEDLADYFCQQYYSAPPWTFGGGTKLEIKR
notes: UFKA-20 variant; also called UFKA-20 variant 105+9; vH chain 105, vL chain 9; copies: 2 + 2
[1]
  Kd: 0.271 nM

B7: NARA1 (anti-human IL-2 mAb, CD122-biasing) (antibody, V domains shown)
VH: QVQLQQSGAELVRPGTSVKVSCKASGYAFTNYLIEWVKQRPGQGLEWIGVINPGSGGTNYNEKFKGKATLTADKSSSTAYMQLSSLTSDDSAVYFCARWRGDGYYAYFDVWGAGTTVTVSS
VL: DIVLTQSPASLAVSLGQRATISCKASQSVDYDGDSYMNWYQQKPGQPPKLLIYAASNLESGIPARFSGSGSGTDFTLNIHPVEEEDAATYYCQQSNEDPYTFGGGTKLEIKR
[2]
  Kd: 4.2 nM
  koff: 0.000117 s⁻¹
  kon: 30000 M⁻¹ s⁻¹

B8: UFKA-22-10 (antibody, human IgG1, V domains shown)
VH: EVQLVESGGGLVKPGGSLRLSCAASGFSFSNYAMSWVRQAPGKGLEWVSLISGGGSYSYYPDSLKGRFTISRDSAKNSLYLQMSSLRAEDTAVYYCARHMGYNDYLAWFAYWGQGTLVTVSS
VL: DIVMTQSPDSLAVSLGERATINCKSSQSLLNSANQKNYLAWYQQKPGQPPKLLIYFASTRESGVPDRFIGSGSGTDFTLTISSLQAEDVAVYYCQQYYSAPPWTFGGGTKVEIK
[3]
  Kd: 5.16 nM
  koff: 0.00283 s⁻¹
  kon: 548000 M⁻¹ s⁻¹

B9: UFKA-22-00 (humanized UFKA-20) (antibody, human IgG1, kappa, N297A, V domains shown)
VH: EVQLVESGGGLVKPGGSLRLSCAASGFSFSNYAMSWVRQAPGKGLEWVSLISGGGSYSYYPDSLKGRFTISRDNAKNSLYLQMNSLRAEDTAVYYCARHMGYNDYLAWFAYWGQGTLVTVSS
VL: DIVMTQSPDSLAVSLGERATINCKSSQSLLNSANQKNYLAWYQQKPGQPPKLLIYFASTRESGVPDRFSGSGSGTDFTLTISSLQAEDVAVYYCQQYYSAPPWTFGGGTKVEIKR
notes: Human IgG1 with N297A
[3]
  Kd: 5.13 nM
  koff: 0.00239 s⁻¹
  kon: 466000 M⁻¹ s⁻¹
[4]
  Kd: 5.13 nM
  koff: 0.00239 s⁻¹
  kon: 466000 M⁻¹ s⁻¹

B10: UFKA-22-07 (antibody, human IgG1, V domains shown)
VH: EVQLVESGGGLVKPGGSLRLSCAASGFSFSNYAMSWVRQAPGKGLEWVSLISGGGSYSYYPDSLKGRFTISRDNAKNSLYLQMNSLRAEDTAVYYCARHMGYNDYLAWFAYWGQGTLVTVSS
VL: DIVMTQSPDSLAVSLGERATINCKSSQSLLNSANQKNYLAWYQQKPGQPPKLLIYFASTRESGVPDRFIGSGSGTDFTLTISSLQAEDVAVYYCQQYYSAPPWTFGGGTKVEIK
[3]
  Kd: 5.17 nM
  koff: 0.00251 s⁻¹
  kon: 486000 M⁻¹ s⁻¹
[4]
  Kd: 5.17 nM
  koff: 0.00251 s⁻¹
  kon: 486000 M⁻¹ s⁻¹

B11: UFKA-22-01 (antibody, human IgG1, V domains shown)
VH: EVQLVESGGGLVKPGGSLRLSCAASGFSFSNYAMSWVRQAPGKGLEWVSLISGGGSYSYYPDSLKGRFTISRDSAKNSLYLQMNSLRAEDTAVYYCARHMGYNDYLAWFAYWGQGTLVTVSS
VL: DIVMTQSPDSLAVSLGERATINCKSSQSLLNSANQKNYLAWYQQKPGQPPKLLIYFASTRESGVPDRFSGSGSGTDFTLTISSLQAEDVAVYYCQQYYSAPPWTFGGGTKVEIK
[3]
  Kd: 5.31 nM
  koff: 0.00252 s⁻¹
  kon: 475000 M⁻¹ s⁻¹

B12: UFKA-22-05 (antibody, human IgG1, V domains shown)
VH: EVQLVESGGGLVKPGGSLRLSCAASGFSFSNYAMSWVRQAPGKGLEWVSLISGGGSYSYYPDSLKGRFTISRDNAKNSLYLQMSSLRAEDTAMYYCARHMGYNDYLAWFAYWGQGTLVTVSS
VL: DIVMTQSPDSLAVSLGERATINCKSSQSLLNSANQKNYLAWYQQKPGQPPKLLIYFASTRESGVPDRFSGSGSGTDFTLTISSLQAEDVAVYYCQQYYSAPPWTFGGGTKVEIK
[3]
  Kd: 4.86 nM
  koff: 0.0022 s⁻¹
  kon: 452000 M⁻¹ s⁻¹

B13: UFKA-22-11 (antibody, human IgG1, V domains shown)
VH: EVQLVESGGGLVKPGGSLRLSCAASGFSFSNYAMSWVRQAPGKGLEWVSLISGGGSYSYYPDSLKGRFTISRDSAKNSLYLQMNSLRAEDTAMYYCARHMGYNDYLAWFAYWGQGTLVTVSS
VL: DIVMTQSPDSLAVSLGERATINCKSSQSLLNSANQKNYLAWYQQKPGQPPKLLIYFASTRESGVPDRFIGSGSGTDFTLTISSLQAEDVAVYYCQQYYSAPPWTFGGGTKVEIK
[3]
  Kd: 5.31 nM
  koff: 0.00275 s⁻¹
  kon: 517000 M⁻¹ s⁻¹

B14: UFKA-22-14 (antibody, human IgG1, V domains shown)
VH: EVQLVESGGGLVKPGGSLRLSCAASGFSFSNYAMSWVRQAPGKGLEWVSLISGGGSYSYYPDSLKGRFTISRDNAKNSLYLQMNSLRAEDTAVYYCARHMGYNDYLAWFAYWGQGTLVTVSA
VL: DIVMTQSPDSLAVSLGERATINCKSSQSLLNSANQKNYLAWYQQKPGQPPKLLIYFASTRESGVPDRFIGSGSGTDFTLTISSLQAEDVAVYYCQQYYSAPPWTFGGGTKVEIK
[3]
  Kd: 4.3 nM
  koff: 0.0024 s⁻¹
  kon: 560000 M⁻¹ s⁻¹

B15: UFKA-22-09 (antibody, human IgG1, V domains shown)
VH: EVQLVESGGGLVKPGGSLRLSCAASGFSFSNYAMSWVRQAPGKGLEWVSLISGGGSYSYYPDSLKGRFTISRDNAKNSLYLQMSSLRAEDTAVYYCARHMGYNDYLAWFAYWGQGTLVTVSS
VL: DIVMTQSPDSLAVSLGERATINCKSSQSLLNSANQKNYLAWYQQKPGQPPKLLIYFASTRESGVPDRFIGSGSGTDFTLTISSLQAEDVAVYYCQQYYSAPPWTFGGGTKVEIK
[3]
  Kd: 5.27 nM
  koff: 0.00246 s⁻¹
  kon: 466000 M⁻¹ s⁻¹

B16: UFKA-22-04 (antibody, human IgG1, V domains shown)
VH: EVQLVESGGGLVKPGGSLRLSCAASGFSFSNYAMSWVRQAPGKGLEWVSLISGGGSYSYYPDSLKGRFTISRDSAKNSLYLQMNSLRAEDTAMYYCARHMGYNDYLAWFAYWGQGTLVTVSS
VL: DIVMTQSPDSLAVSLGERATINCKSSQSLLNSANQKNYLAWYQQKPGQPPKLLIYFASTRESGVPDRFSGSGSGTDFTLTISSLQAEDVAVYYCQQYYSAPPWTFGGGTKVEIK
[3]
  Kd: 5.03 nM
  koff: 0.00241 s⁻¹
  kon: 479000 M⁻¹ s⁻¹

B17: UFKA-22-12 (antibody, human IgG1, V domains shown)
VH: EVQLVESGGGLVKPGGSLRLSCAASGFSFSNYAMSWVRQAPGKGLEWVSLISGGGSYSYYPDSLKGRFTISRDNAKNSLYLQMSSLRAEDTAMYYCARHMGYNDYLAWFAYWGQGTLVTVSS
VL: DIVMTQSPDSLAVSLGERATINCKSSQSLLNSANQKNYLAWYQQKPGQPPKLLIYFASTRESGVPDRFIGSGSGTDFTLTISSLQAEDVAVYYCQQYYSAPPWTFGGGTKVEIK
[3]
  Kd: 5.05 nM
  koff: 0.0024 s⁻¹
  kon: 474000 M⁻¹ s⁻¹

B18: UFKA-22-06 (antibody, human IgG1, V domains shown)
VH: EVQLVESGGGLVKPGGSLRLSCAASGFSFSNYAMSWVRQAPGKGLEWVSLISGGGSYSYYPDSLKGRFTISRDSAKNSLYLQMSSLRAEDTAMYYCARHMGYNDYLAWFAYWGQGTLVTVSS
VL: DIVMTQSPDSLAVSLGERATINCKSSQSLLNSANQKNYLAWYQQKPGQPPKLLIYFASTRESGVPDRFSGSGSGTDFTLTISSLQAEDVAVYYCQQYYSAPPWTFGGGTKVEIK
[3]
  Kd: 4.45 nM
  koff: 0.00252 s⁻¹
  kon: 567000 M⁻¹ s⁻¹

B19: UFKA-22-13 (antibody, human IgG1, V domains shown)
VH: EVQLVESGGGLVKPGGSLRLSCAASGFSFSNYAMSWVRQAPGKGLEWVSLISGGGSYSYYPDSLKGRFTISRDSAKNSLYLQMSSLRAEDTAMYYCARHMGYNDYLAWFAYWGQGTLVTVSS
VL: DIVMTQSPDSLAVSLGERATINCKSSQSLLNSANQKNYLAWYQQKPGQPPKLLIYFASTRESGVPDRFIGSGSGTDFTLTISSLQAEDVAVYYCQQYYSAPPWTFGGGTKVEIK
[3]
  Kd: 4.56 nM
  koff: 0.00277 s⁻¹
  kon: 607000 M⁻¹ s⁻¹

B20: UFKA-22-03 (antibody, human IgG1, V domains shown)
VH: EVQLVESGGGLVKPGGSLRLSCAASGFSFSNYAMSWVRQAPGKGLEWVSLISGGGSYSYYPDSLKGRFTISRDSAKNSLYLQMSSLRAEDTAVYYCARHMGYNDYLAWFAYWGQGTLVTVSS
VL: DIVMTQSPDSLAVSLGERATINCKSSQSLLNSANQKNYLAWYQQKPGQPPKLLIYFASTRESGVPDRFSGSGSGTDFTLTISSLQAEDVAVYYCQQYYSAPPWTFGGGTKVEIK
[3]
  Kd: 4.73 nM
  koff: 0.00279 s⁻¹
  kon: 590000 M⁻¹ s⁻¹

B21: UFKA-22-08 (antibody, human IgG1, V domains shown)
VH: EVQLVESGGGLVKPGGSLRLSCAASGFSFSNYAMSWVRQAPGKGLEWVSLISGGGSYSYYPDSLKGRFTISRDSAKNSLYLQMNSLRAEDTAVYYCARHMGYNDYLAWFAYWGQGTLVTVSS
VL: DIVMTQSPDSLAVSLGERATINCKSSQSLLNSANQKNYLAWYQQKPGQPPKLLIYFASTRESGVPDRFIGSGSGTDFTLTISSLQAEDVAVYYCQQYYSAPPWTFGGGTKVEIK
[3]
  Kd: 5.33 nM
  koff: 0.00275 s⁻¹
  kon: 515000 M⁻¹ s⁻¹

B22: UFKA-22-02 (antibody, human IgG1, V domains shown)
VH: EVQLVESGGGLVKPGGSLRLSCAASGFSFSNYAMSWVRQAPGKGLEWVSLISGGGSYSYYPDSLKGRFTISRDNAKNSLYLQMSSLRAEDTAVYYCARHMGYNDYLAWFAYWGQGTLVTVSS
VL: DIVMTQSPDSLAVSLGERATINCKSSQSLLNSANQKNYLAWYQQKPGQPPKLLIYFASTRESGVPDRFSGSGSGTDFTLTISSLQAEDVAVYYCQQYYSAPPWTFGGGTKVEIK
[3]
  Kd: 5.51 nM
  koff: 0.00227 s⁻¹
  kon: 412000 M⁻¹ s⁻¹
[4]
  Kd: 5.51 nM
  koff: 0.00227 s⁻¹
  kon: 412000 M⁻¹ s⁻¹
